Data on one molecule can be found in patent publication US20140199327A1, “METHODS OF PROMOTING DIFFERENTIATION” (Genentech, Inc., priority 2011, published 2014).

Assay [1] has as its target SENP3-Flag (human SENP3 with C-terminal Flag epitope) (human, UniProt Q9H4L4 1-574, limits assumed). In words: Flag immunoprecipitation of DUBs from 293T cells cotransfected with ID2, MG-132 treated (FIG. 2B). How it is done:
(§1) FIG. 2. […] (A) Western blot (WB) analysis of 293T transfected with Flag-tagged deubiquitinases (DUBs) or an empty vector (−). Where indicated, cells were treated with […] MG-132 for 4 hr. (B) Flag-tagged DUBs were immunoprecipitated (IP) from 293T cells cotransfected with ID2 and treated with […] MG-132 for 6 hr.

Assay [2] addresses T1, USP36-Flag (human USP36 with C-terminal Flag epitope) (human, UniProt Q9P275 1-1123, limits assumed).
T1 sequence (looked up): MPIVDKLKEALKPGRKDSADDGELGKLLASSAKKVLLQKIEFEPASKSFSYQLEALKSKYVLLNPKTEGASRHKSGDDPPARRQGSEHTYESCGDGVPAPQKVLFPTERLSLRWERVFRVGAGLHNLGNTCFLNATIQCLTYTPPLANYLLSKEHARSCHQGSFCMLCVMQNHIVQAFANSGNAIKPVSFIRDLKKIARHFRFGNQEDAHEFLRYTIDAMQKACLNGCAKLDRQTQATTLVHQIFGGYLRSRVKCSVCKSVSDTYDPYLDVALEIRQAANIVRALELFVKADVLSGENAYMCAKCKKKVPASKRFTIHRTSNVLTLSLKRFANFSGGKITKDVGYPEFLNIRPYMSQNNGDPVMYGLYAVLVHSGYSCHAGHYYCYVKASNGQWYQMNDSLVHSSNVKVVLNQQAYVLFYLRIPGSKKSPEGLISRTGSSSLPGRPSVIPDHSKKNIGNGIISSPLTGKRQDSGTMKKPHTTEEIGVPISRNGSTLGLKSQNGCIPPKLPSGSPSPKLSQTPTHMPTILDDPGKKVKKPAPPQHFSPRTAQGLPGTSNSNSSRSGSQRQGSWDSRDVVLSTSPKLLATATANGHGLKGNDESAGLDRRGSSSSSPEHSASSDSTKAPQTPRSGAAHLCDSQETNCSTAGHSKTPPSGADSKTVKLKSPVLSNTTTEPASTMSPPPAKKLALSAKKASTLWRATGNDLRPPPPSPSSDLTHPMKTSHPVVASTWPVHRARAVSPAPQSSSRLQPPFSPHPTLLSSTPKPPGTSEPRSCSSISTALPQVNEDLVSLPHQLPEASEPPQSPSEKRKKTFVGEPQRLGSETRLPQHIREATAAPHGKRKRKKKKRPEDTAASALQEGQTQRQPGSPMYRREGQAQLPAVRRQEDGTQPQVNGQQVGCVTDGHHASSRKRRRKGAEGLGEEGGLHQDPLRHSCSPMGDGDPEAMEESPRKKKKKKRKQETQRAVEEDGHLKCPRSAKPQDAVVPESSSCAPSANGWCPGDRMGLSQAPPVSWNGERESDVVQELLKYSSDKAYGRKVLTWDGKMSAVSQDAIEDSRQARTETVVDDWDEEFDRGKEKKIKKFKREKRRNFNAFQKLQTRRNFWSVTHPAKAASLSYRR
The description is as above. How it is done: as §1

Sequence of SENP3-Flag (human SENP3 with C-terminal Flag epitope) (Q9H4L4 whole entry): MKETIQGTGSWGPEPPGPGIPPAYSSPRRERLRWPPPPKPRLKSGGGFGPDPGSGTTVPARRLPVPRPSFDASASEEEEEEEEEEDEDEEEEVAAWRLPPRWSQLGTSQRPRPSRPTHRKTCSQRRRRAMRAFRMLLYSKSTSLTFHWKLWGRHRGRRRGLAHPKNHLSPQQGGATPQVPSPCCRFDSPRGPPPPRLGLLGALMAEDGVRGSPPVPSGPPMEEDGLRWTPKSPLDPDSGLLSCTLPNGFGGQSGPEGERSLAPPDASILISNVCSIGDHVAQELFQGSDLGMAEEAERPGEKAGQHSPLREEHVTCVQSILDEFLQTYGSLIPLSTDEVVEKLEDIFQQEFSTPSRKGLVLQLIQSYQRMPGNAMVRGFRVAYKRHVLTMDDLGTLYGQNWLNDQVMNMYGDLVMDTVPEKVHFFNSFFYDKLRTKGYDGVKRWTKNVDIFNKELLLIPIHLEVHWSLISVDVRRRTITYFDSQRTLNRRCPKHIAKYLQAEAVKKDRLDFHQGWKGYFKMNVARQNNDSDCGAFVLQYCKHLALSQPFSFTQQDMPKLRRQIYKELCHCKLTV

B1: ID2 (co-transfected / co-expressed in 293T cells) (other)
chain: MKAFSPVRSVRKNSLSDHSLGISRSKTPVDDPMSLLYNMNDCYSKLKELVPSIPQNKKVSKMEILQHVIDYILDLQIALDSHPTIVSLHHQRPGQNQASRTPLTTLNTDISILSLQASEFPSELMSNDSKALCG
notes: ID2 was amplified from Jurkat-derived cDNA; The methods describe only a C-terminal Flag version in pRK2001
Regarding B1, the binding result in assay [1] and in assay [2] was “no binding” throughout.
